From PMC7042235 come the findings set out here.

The target in this assay is microtubules (polymerized porcine tubulin) (porcine) (UniProt P02550). Put plainly: co-sedimentation; purified MTBDs (1-32 uM) mixed with 5 uM paclitaxel-stabilised porcine MTs; 100 mM PIPES pH 6.8, 50 mM NaCl, 2 mM MgCl2, 1 mM EGTA; 210,000 x g, 25 °C, 10 min; pellets on SDS-PAGE, densitometry, one-site curve fitting.

The term Kd denotes a measure of binding affinity in units of concentration. A lower Kd goes with tighter binding.

Turning to “MTBD-High, MTBD(I3101C/V3222C) (from UniProt P36022 3096-3232) (domain or fragment)”, the Kd is 4.8 µM.
